Measurements reported in patent publication US20110251266.

Molecular target: beta-NGF (nerve growth factor) (Homo sapiens) (UniProt P01138)
Test: cell_activity
Conditions: as SEQ30(6); 100 nM aptamer; parent 92.7%

Sequence of beta-NGF (nerve growth factor) (Homo sapiens) (P01138 122-241): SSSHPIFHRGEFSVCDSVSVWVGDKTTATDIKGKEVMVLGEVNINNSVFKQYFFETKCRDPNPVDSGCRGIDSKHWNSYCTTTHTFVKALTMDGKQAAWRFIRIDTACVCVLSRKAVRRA

Sequence | activity
GGGAUAAAAAUAGAGUUUGAUAAACACCUGUAUUAAAACCC [SEQ30(6) G20A] | 96.1 % inhibition
GGGAUAAAAAUAGAGUUUGAUAAACACCUGUAUUAAAACCC [SEQ30(6) G23A] | 91.2 % inhibition
